Measured values as given in article PMC10747430, “^99mTc-Labeled Cyclic Peptide Targeting PD-L1 as a Novel Nuclear Imaging Probe” (Pharmaceutics, 2023).

Legend:
[1] = Serum protein binding; assay type: in vitro ADME; conditions: human serum (diluted 5x), 37 °C, size-exclusion radio-HPLC, n = 3
Experimental: The stability of [^99mTc]Tc-iPD-L1 and [^99mTc]Tc-WL12 was evaluated by diluting the samples in human serum (5x). The radiopharmaceuticals (n = 3) were heated at 37 °C and analyzed at 0.5, 3, and 24 h for radiochemical purity by size-exclusion radio-HPLC (ProteinPak 300SW, Waters Corporation, Milford, CT, USA).
The radioactivity from [^99mTc]Tc-iPD-L1 bound to serum proteins was 1.3 ± 0.8% at 30 min, 3.2 ± 1.3% at 3 h, and 7.6 ± 1.9% at 24 h. High radiochemical stability (>90% at 24 h) was also observed. In the case of [^99mTc]Tc-WL12, protein binding was 1.0 ± 0.4% at 30 min, 3.3 ± 0.9% at 3 h, and 6.0 ± 1.3% at 24 h, with a radiochemical purity of >90% at 24 h. Therefore, there was no significant difference […] in protein binding and serum stability between the radiotracers.

[2] = biological target: T1, human recombinant PD-L1 protein (Homo sapiens, UniProt Q9NZQ7); test: Radio-SDS-PAGE molecular recognition by PD-L1 protein; assay type: binding; conditions: radiopeptide (1 mg/mL) incubated with PD-L1 (200 µg/mL) 30 min at 37 °C; 15% SDS-PAGE, radio-TLC scan
T1 construct: purchased FineTest P6857
T1 sequence (Q9NZQ7 19-290): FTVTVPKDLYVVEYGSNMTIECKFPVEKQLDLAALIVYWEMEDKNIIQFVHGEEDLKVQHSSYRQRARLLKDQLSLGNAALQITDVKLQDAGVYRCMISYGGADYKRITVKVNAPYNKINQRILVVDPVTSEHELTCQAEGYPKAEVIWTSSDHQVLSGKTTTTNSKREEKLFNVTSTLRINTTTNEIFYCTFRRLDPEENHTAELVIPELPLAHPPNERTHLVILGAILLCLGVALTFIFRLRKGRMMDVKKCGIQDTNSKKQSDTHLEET
Experimental: (§1) SDS-PAGE gel electrophoresis was performed. Radioactivity distribution was determined using a radio-TLC scanner (Mini-Gita, 60–150 keV, BGO-Crystal, window 25 × 2 mm, thickness 5 mm, resolution optimized for Tc-99m; RayTest, Munich, Germany) to detect [^99mTc]Tc-iPD-L1 and [^99mTc]Tc-WL12 binding to PD-L1 protein.
(§2) Briefly, ^99mTc-labeled WL12 and iPD-L1 solutions (100 µL) (1 mg/mL peptide) were incubated with human recombinant PD-L1 protein (100 µL) (200 µg/mL; FineTest; Cat: P6857) (radiopeptide-PD-L1 interaction) or human integrin αVβ3 protein (100 µL) (negative control; 200 µg/mL) (Chemicom, Merck; Burlington, MA, USA) (radiopeptide-integrin interaction) for 30 min at 37 °C, after which the samples were diluted with Laemmli sample buffer (containing 10% SDS, Tris-Cl 125 mM, pH = 6.8, 12.5% glycerol and 0.005% bromophenol blue after dye) to give final protein concentrations of 25 µg/mL. […] Finally, the radioactivity distribution on the gels was scanned using a radio-TLC detector to determine the percentage of [^99mTc]Tc-iPD-L1 or [^99mTc]Tc-WL12 radioactivity associated with proteins.
(§3) In vitro-specific recognition of [^99mTc]Tc-iPD-L1 and [^99mTc]Tc-WL12 by the PD-L1 protein was performed using a combination of radio-TLC and SDS-PAGE (radio-SDS-PAGE). […] Therefore, the radioactivity associated with free peptides is in the front of the gel plate (around 60–70 mm). […]

[3] = biological target: T2, human integrin αVβ3 protein (Homo sapiens, UniProt P05106+P06756); test: Radio-SDS-PAGE with integrin (negative control protein); assay type: binding; conditions: radiopeptide incubated with integrin αVβ3 (200 µg/mL) 30 min at 37 °C, radio-TLC scan
T2 construct: purchased Chemicom, Merck
T2 sequence (P06756 31-889 limits assumed): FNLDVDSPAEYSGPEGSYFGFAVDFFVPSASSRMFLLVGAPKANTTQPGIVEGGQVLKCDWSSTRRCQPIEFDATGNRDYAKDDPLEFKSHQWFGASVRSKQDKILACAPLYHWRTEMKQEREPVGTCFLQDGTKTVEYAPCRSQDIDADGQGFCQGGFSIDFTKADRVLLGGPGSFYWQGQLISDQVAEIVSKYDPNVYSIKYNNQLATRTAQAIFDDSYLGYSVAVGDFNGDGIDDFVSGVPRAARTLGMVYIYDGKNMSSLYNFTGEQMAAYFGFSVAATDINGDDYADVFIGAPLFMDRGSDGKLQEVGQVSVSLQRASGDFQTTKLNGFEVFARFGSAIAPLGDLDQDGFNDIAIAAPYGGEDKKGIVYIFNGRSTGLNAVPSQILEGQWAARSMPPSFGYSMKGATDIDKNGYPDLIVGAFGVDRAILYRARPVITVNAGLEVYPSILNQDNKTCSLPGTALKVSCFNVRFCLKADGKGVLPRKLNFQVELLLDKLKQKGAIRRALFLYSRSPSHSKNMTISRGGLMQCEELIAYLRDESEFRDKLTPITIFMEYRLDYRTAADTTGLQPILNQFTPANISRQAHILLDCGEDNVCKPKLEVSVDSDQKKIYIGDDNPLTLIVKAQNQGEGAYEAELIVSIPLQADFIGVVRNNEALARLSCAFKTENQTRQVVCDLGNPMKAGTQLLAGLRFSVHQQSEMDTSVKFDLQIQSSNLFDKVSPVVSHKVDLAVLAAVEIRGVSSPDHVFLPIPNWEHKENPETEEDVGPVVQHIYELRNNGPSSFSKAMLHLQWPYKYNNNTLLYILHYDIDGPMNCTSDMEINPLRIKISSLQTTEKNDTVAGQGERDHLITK
T2 sequence (P06756 891-1048 limits assumed): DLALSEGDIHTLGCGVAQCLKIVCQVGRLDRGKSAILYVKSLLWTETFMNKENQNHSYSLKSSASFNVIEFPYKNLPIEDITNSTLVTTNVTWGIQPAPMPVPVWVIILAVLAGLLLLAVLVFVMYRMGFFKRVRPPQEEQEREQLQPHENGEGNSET
T2 sequence (P05106 27-788): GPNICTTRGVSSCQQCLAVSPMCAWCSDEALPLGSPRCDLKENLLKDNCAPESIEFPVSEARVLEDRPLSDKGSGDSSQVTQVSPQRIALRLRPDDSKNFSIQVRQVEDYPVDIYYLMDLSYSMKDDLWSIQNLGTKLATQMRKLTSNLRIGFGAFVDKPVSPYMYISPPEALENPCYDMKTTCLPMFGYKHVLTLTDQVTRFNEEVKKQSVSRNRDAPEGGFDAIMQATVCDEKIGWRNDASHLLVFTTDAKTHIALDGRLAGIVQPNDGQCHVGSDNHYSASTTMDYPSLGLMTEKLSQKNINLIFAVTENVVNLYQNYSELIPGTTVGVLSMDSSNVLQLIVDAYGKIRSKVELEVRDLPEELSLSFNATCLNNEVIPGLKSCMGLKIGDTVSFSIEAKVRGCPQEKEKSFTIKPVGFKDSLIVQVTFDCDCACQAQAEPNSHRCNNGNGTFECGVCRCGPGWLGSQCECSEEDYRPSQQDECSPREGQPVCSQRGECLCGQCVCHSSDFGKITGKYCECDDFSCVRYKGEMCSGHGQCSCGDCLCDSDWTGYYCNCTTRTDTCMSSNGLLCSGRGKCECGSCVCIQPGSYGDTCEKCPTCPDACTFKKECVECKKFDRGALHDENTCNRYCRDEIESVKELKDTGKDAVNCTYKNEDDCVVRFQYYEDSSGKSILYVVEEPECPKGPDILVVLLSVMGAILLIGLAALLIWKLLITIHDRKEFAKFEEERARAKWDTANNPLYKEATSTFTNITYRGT
Experimental: as §1, §2, §3

[4] = test system: HCC827 cells (PD-L1 positive); test: Cellular uptake and internalization, HCC827; assay type: cell-based, human; conditions: HCC827, 1 × 10^6 cells/tube, 7.4 kBq, 37 °C, 1 h, n = 3
Experimental: Human colorectal cancer HCT116 (PD-L1 positive: 45.1 nTPM), human lung cancer HCC827 (PD-L1 positive: 27.1 nTPM), and […] C6 glioma cells (PD-L1 negative control) were obtained from ATCC (Atlanta, GA, USA). FBS, RPMI, and cell culture medium were obtained from Bovine and Biology (CDMX, MX). Cells were cultured in RPMI medium (5% CO2; 100 µg/mL penicillin, 15% fetal bovine serum, and 100 µg/mL streptomycin; 37 °C).
Cells diluted in phosphate-buffered saline (PBS) (pH 7.4) (1 × 10^6 cells/tube) received three different treatments: (a) [^99mTc]Tc-iPD-L1 (7.4 kBq) (n = 3), (b) and [^99mTc]Tc-WL12 (7.4 kBq) (n = 3), and (c) ^99mTcO4Na (7.4 kBq) (n = 3). Cells were incubated with each treatment at 37 °C for one hour. After incubation, tubes were measured in a NaI(Tl) detector (NML Inc., Houston, TX, USA) to establish the initial or first activity (100%). The tubes were spun at 500 g for 10 min, rinsed once with PBS, and spun once more. The liquid was removed, and the activity in the button was determined, indicating the percentage of cellular uptake (surface uptake) regarding the initial or first activity. Acetic acid/0.5 M NaCl was added, the tubes were centrifuged, and the activity was measured. The liquid was removed, and activity in button activity represented the percentage of activity internalized by cells relative to uptake activity (internalization fraction of surface uptake). […]

CCCC[C@H]1C(=O)N(C)[C@@H](CCCC)C(=O)N[C@@H](CCCNC(=O)c2ccc(NN)nc2)C(=O)N[C@H](C(=O)NCC(N)=O)CSCC(=O)N[C@@H](Cc2ccc(O)cc2)C(=O)N(C)[C@@H](C)C(=O)N[C@@H](CC(N)=O)C(=O)N2CCC[C@H]2C(=O)N[C@@H](Cc2c[nH]cn2)C(=O)N[C@@H](CC(C)C)C(=O)N2C[C@H](O)C[C@H]2C(=O)N[C@@H](Cc2c[nH]c3ccccc23)C(=O)N[C@@H](CO)C(=O)N[C@@H](Cc2cn(C)c3ccccc23)C(=O)N1C [[^99mTc]Tc-WL12, metal not drawn]
radioactivity bound to serum proteins at 30 min ([1]; 30 min): 1.0 ± 0.4% | radioactivity bound to serum proteins at 3 h ([1]; 3 h): 3.3 ± 0.9% | radioactivity bound to serum proteins at 24 h ([1]; 24 h): 6.0 ± 1.3% | radioactivity detected at the distance associated with the PD-L1 protein [2]: 14% | shift in radioactivity with integrin (negative control) [3]: no shift in radioactivity | uptake and internalization compared to C6 cells (PD-L1 negative) [4]: significantly higher
